According to the Immune Epitope Database (IEDB):

Columns and labels:
[1] = target: HLA-A*29:02; experiment: IEDB peptide-MHC binding, purified MHC/competitive/radioactivity; filed as Kd, often an IC50 or EC50 that approximates it; ≥ and ≤ were set here for values at or beyond the usual limits of such assays
[2] = target: HLA-A*30:02; experiment: as above
[3] = target: HLA-A*01:01; experiment: as above
[4] = target: HLA-A*24:02; experiment: as above
[5] = target: HLA-A*26:01; experiment: as above
[6] = target: HLA-A*23:01; experiment: as above
[7] = target: HLA-A*02:01; experiment: IEDB peptide-MHC binding, purified MHC/competitive/fluorescence; ≥ and ≤ were set here for values at or beyond the usual limits of such assays
[8] = target: HLA-B*58:01; experiment: IEDB peptide-MHC binding, purified MHC/direct/fluorescence; filed as Kd, often an IC50 or EC50 that approximates it; ≥ and ≤ were set here for values at or beyond the usual limits of such assays; conditions: source organism: Mycobacterium tuberculosis
[9] = target: HLA-B*15:01; experiment: as above; conditions: source organism: Salmonella enterica subsp. enterica serovar Typhimurium
[10] = source organism: SARS coronavirus Tor2
[11] = source organism: Dengue virus 1 Brazil/97-11/1997
[12] = source organism: Dengue virus 4 Philippines/H241/1956
[13] = source organism: Zaire ebolavirus
[14] = source organism: Dengue virus 2 Jamaica/1409/1983
[15] = source organism: Dengue virus 3 Martinique/1243/1999
[16] = source organism: Triticum aestivum
[17] = source organism: Mammarenavirus brazilense
[18] = source organism: Mammarenavirus juninense
[19] = source organism: Mammarenavirus whitewaterense
[20] = source organism: Mammarenavirus guanaritoense

Sequence: LSNFGAPSY
- Kd [1, 10]: 13.9 nM
- Kd [2, 10]: 1.77 nM
- Kd [3, 10]: 81.2 nM
- Kd [4, 10]: ≥ 77600 nM
- Kd [5, 10]: 4.58 µM
- Kd [6, 10]: ≥ 77800 nM

Sequence: LTKGTLEPEY
- Kd [1, 10]: 2050 nM
- Kd [2, 10]: 536 nM
- Kd [3, 10]: 3200 nM
- Kd [4, 10]: ≥ 70300 nM
- Kd [5, 10]: 1.99 µM
- Kd [6, 10]: ≥ 70000 nM

Sequence: LTQDLFLPFY
- Kd [1, 10]: 53.5 nM
- Kd [2, 10]: 2.26 nM
- Kd [3, 10]: 8.38 nM
- Kd [4, 10]: 10500 nM
- Kd [5, 10]: 0.481 µM
- Kd [6, 10]: 18000 nM

Sequence: LWMASVEPHW
- Kd [4, 11]: 231 nM
- Kd [6, 11]: 130 nM

Sequence: MMSAPPAEY
- Kd [1, 10]: 1.23 nM
- Kd [2, 10]: 0.112 nM
- Kd [3, 10]: 182 nM
- Kd [4, 10]: 12700 nM
- Kd [5, 10]: 2.24 µM
- Kd [6, 10]: ≥ 51100 nM

Sequence: MSYTMCSGKF
- Kd [2, 12]: 81.8 nM
- Kd [3, 12]: 7720 nM
- Kd [5, 12]: 1.51 µM

Sequence: NLTIAWPRM
- IC50 ([7]; source organism: Human alphaherpesvirus 1 strain 17): ≥ 50 µM

Sequence: NMVYMPASW
- Kd [1, 10]: ≥ 25100 nM
- Kd [2, 10]: ≥ 96800 nM
- Kd [3, 10]: ≥ 78100 nM
- Kd [4, 10]: 4020 nM
- Kd [5, 10]: ≥ 77.9 µM
- Kd [6, 10]: 706 nM

Sequence: NSEQGGRAY
- Kd ([3]; source organism: Dengue virus 1 Singapore/S275/1990): 316 nM

Sequence: PRCRYVHKV
- IC50 [7, 13]: ≥ 3070 µM

Sequence: PYLGKREDQW
- Kd [4, 14]: 2980 nM
- Kd [6, 14]: 1390 nM

Sequence: PYMPTVIEHL
- Kd [4, 15]: 46.2 nM
- Kd [6, 15]: 43.4 nM

Sequence: QFEEIRNLAL
- Kd [1, 16]: 3880 nM
- Kd [2, 16]: 7390 nM
- Kd [3, 16]: ≥ 70400 nM
- Kd [4, 16]: 6850 nM
- Kd [5, 16]: ≥ 69.7 µM
- Kd [6, 16]: ≥ 21700 nM

Sequence: QFLFQLNDT
- IC50 ([7]; source organism: Sudan ebolavirus): 10.8 µM

Sequence: QKAALSEGVY
- Kd ([2]; source organism: Dengue virus 4 Singapore/8976/1995): 139 nM

Sequence: QYGSFCTQL
- Kd [1, 10]: ≥ 78900 nM
- Kd [2, 10]: ≥ 93800 nM
- Kd [3, 10]: ≥ 78100 nM
- Kd [4, 10]: ≥ 107000 nM
- Kd [5, 10]: ≥ 77.9 µM
- Kd [6, 10]: ≥ 75400 nM

Sequence: QYSQPQQPI
- Kd [1, 16]: 407 nM
- Kd [2, 16]: 93.3 nM
- Kd [3, 16]: ≥ 56400 nM
- Kd [4, 16]: 2620 nM
- Kd [5, 16]: ≥ 77.9 µM
- Kd [6, 16]: 16100 nM

Sequence: RLDDDGNFQL
- IC50 ([7]; source organism: West Nile virus NY-99): 0.847 µM

Sequence: RSTYRLDGW
- Kd [8]: 45.3 nM

Sequence: SFYCDPKRYF
- Kd [1, 17]: 29.4 nM
- Kd [4, 17]: 443 nM
- Kd [6, 17]: 84.6 nM

Sequence: SGKDTPGGY
- Kd [1, 18]: ≥ 69700 nM
- Kd [2, 18]: 2.85 nM
- Kd [3, 18]: 13600 nM
- Kd [4, 18]: ≥ 77500 nM
- Kd [5, 18]: ≥ 77.9 µM
- Kd [6, 18]: ≥ 77700 nM

Sequence: SGLLIVKTV
- IC50 [7, 13]: 2.29 µM

Sequence: SKKEGGAMY
- Kd [2, 14]: ≥ 76900 nM

Sequence: SWILRNPGF
- Kd [4, 12]: 369 nM
- Kd [6, 12]: 496 nM

Sequence: TKHPSLNII
- Kd [1, 19]: ≥ 78900 nM
- Kd [2, 19]: ≥ 76900 nM
- Kd [3, 19]: ≥ 47100 nM
- Kd [4, 19]: ≥ 52100 nM
- Kd [5, 19]: ≥ 77.9 µM
- Kd [6, 19]: ≥ 53100 nM

Sequence: TWMDLLRALI
- Kd [4, 12]: 128 nM
- Kd [6, 12]: 21.7 nM

Sequence: VFGSVYTTMF
- Kd [4, 12]: 1170 nM
- Kd [6, 12]: 57.3 nM

Sequence: VFGTAYGVLF
- Kd [4, 11]: 73.7 nM
- Kd [6, 11]: 34.4 nM

Sequence: VFHELPSLC
- Kd [3, 20]: ≥ 78100 nM
- Kd [5, 20]: ≥ 77.9 µM

Sequence: VFTTNIWLK
- Kd [6, 14]: ≥ 30900 nM

Sequence: VHTWTEQYKF
- Kd [4, 14]: 3780 nM
- Kd [6, 14]: 889 nM

Sequence: VIDLEPISY
- Kd [3, 12]: 51.7 nM

Sequence: VLCSSSPTI
- Kd [1, 20]: ≥ 30700 nM
- Kd [4, 20]: 1670 nM
- Kd [6, 20]: 457 nM

Sequence: VSVKMFDAY
- Kd [1, 10]: 76.6 nM
- Kd [2, 10]: 639 nM
- Kd [3, 10]: 102 nM
- Kd [4, 10]: 10300 nM
- Kd [5, 10]: 11.5 µM
- Kd [6, 10]: 10500 nM

Sequence: VVAIDYRHY
- Kd [1, 10]: 64.7 nM
- Kd [2, 10]: 11.7 nM
- Kd [3, 10]: ≥ 52600 nM
- Kd [4, 10]: ≥ 77600 nM
- Kd [5, 10]: ≥ 22.1 µM
- Kd [6, 10]: ≥ 77800 nM

Sequence: WIPYFGPAA
- IC50 [7, 13]: 0.894 µM

Sequence: YNIDKIKDV
- IC50 ([7]; source organism: Vaccinia virus): 9.18 µM

Sequence: YQRPFGGQS
- Kd [9]: 3.71 µM

Sequence: YTGNYQCGHY
- Kd [1, 10]: 22.5 nM
- Kd [2, 10]: 1.15 nM
- Kd [3, 10]: 3.38 nM
- Kd [4, 10]: ≥ 70300 nM
- Kd [5, 10]: 0.128 µM
- Kd [6, 10]: ≥ 70000 nM

Sequence: YYQLESTQI
- Kd [1, 10]: 247 nM
- Kd [2, 10]: ≥ 81100 nM
- Kd [3, 10]: ≥ 52800 nM
- Kd [4, 10]: 7.7 nM
- Kd [5, 10]: ≥ 77.9 µM
- Kd [6, 10]: 126 nM
